Results reported in a protein production outcome set (Wang et al. 2014).

Assay: label from the status in PepcDB records

MPAAAYWLPASDETPLYTRHWPSATAVGAVMLSHGMAEHAGRYERLAAALNAAGYHFYAIDQRGHGRTAEADELGHFADQGGWGKVVGDLASLNHHIRQQHPELPIFLLGHSMGSYISMAYLLHHSCSLQGAILSGSNYQPQALYRIARLIARFERWRQGPLGKSALIDFLSFGSFNKAFKPNRTAFDWLSRDPQEVDRYVADPLCGFRCSNQLWVDLLGGLADITPPTHLRQIDADLPLLIIGGERDPVSQGKRLGDLADALRGAGLRQVTLKTYPEARHELFNESNRDAVTQDLIDWLEQALRHRRDHST
protein production: failed

MKAFFSFVIRWVIPLLGLIALSLIIWFIGPLLEFLVPEGRRWALIIFIFALWIGYRVFCIIQARRNAAKVLQSLAADTPPDPDSVATAEELAALRQRMDEALALLKKAKLGGDERRNLYELPWYVIIGPPGSGKTTALVNSGLHFPLAAQLGAGAVRGVGGTRNCDWWFTDQAVLLDTAGRYTTQDSHATVDKAAWLGFLDLLKTQRSRRPIDGAFVAISLSDLLLGSEAERAAHAAAIRLRIQELYTQLGVRFPIYLMLTKLDLVPGFMEFFDSLSKEERAQVWGMTFALDDGKSGDSPLAHLPAELAALEQRLNERLVERLQQERDPARRDLIYGFPQQFAALKESLQSFLEGVFKPNAFEERVLLRGVYFTSGTQEGSPIDRLIGAMAQSMNLDRQHLARQTGTGRSYFIEKLFSAVAFAERGLVGVNPKVERRRKWIARGALAGTVALVLVVSTLWIISYRANQAYIAQVDQRVGPVRQDVQNLSPAQRDVLAVLPLLNATRHLAGDAPGWAEGLGLYQGDMLEAESASVYRKLLVAVFAPRLMTRIEEQLHSGGNSDFLYEGLKAYLMLADSEHYDPDFIKAWITLDWDHTLARDLPPEQRQALTGHLQALFEKHPPNARLDQRLIDDLRRQLQQLPVAQRVYDRVKRAKLPDGVPDFRLSEAGGRDAALVFTRKSGKPLSEPLSGLFTAKGYRQGFLLASLNQAGTLAEEQWVLGRDQADQQNVASLAADVRRLYFQDYLRQWDALLADIDFVPITSVAQAADVLRILSGPTSPLKKLLVAVAKETDLQQEERLLAAQGQKVEGGVDQLKQRLGNLLGQEQSANPAAVASSEDPVSAHFAELNSLVSKGEGEPAAIDGLLADMNALYVQVSAMVGASGDALLGEAKNQASAAAARVSLTAERQPPVVQGLVKSVVGSTTNTMMGGVRNQLNAAWVSEVVNVYRQSLSGRYPMSPGSSRDATLEDFGQFFGTGGVMDNYFRKYLQPYVNTSTTTWSWQPGAAQKLGISPGVLQTFQRASNIRDAFFRSSGGTQPAVRFELKPVAMDANISQFLLDLDGQQLSYDHGPSRPVAMQWPNPGSIGVVRLSIMPPSATGRSGITLDGPWAWFRLLEQSDLTATNSPDRFNLRLRVDGASISYELRASSAFNPFKSRVLSGFSLPERL
protein production: failed

MSLTPYEPFRHLDQMRREFDRFFPDFPIDLPNRHLTLSPKMDVHETDHEVILECDIPGLESKEDLQIDVEPRSVRIEGRIKRSKEVHDERFYRREREIGHFRRVVPLPAEVAEDDIRAAYRNGVLEVRMRKRLDDRRRTIDVEFHLEHHHHHH
protein production: not failed

MNNSAFTFQTLHPDTIMDALFEHGIRVDSGLTPLNSYENRVYQFQDEDRRRFVVKFYRPERWTADQILEEHQFALQLVNDEVPVAAPVAFNGQTLLNHQGFYFAVFPSVGGRQFEADNIDQMEAVGRYLGRMHQTGRKQLFIHRPTIGLNEYLIEPRKLFEDATLIPSGLKAAFLKATDELIAAVTAHWREDFTVLRLHGDCHAGNILWRDGPMFVDLDDARNGPAVQDLWMLLNGDKAEQRMQLETIIEAYEEFSEFDTAEIGLIEPLRAMRLVYYLAWLMRRWADPAFPKNFPWLTGEDYWLRQTATFIEQAKVLQEPPLQLTPMY
protein production: not failed

MNNLPLLNDLRVFMLVARRAGFAAAAEELGVSPAFVSKRVSLLEQTLNVMLLHRTTRRVTITEEGERIYEWAQRILQDVDEMMDELSDVRQVPQGTLRIISSFGFGRRVVAPALSALALQYPQLELRFDVQDRLVDLVNEGVDLDIRVGDDIAPNLIARQLAANHRVLCASPQFLARHAPPKQLSDLAALPCLVIKERDHPFGVWQLHSKEGQHAIKVTGPLSSNHGEIVHQWCLDGQGIALRSWWDVRENIASGHLVQVLPDYWQPANVWAVYVSRLATSAKIRTTVEFLRHYFQLHYPQHEPTASAVGRGD
protein production: failed

MLKNIDPALNADVLHALRAMGHGDTLVISDTNFPSDSVARQTTVGKVLHIDNVSAARAMKAILSVLPLDTPLQPSVGRMEVMGAPDQLEPVQVEVQQEIDAAEGKSAPMYGIERFAFYEKAKQAYCVITTGETRFYGCFLLTKGVIPPK
protein production: not failed

MQIFETILIFLALVILSSFLHTFLPKIPLAFIQIILGMLLYVTPIPVQFNFDSELFMVALIAPLLFVEGVKVSRVHLRRYIKPVLMMALGLVVTTVIVVGLFVHWIWPELPMAAAFALAAILCPTDAVAVQAITNGKVLPKGSMTILEGESLLNDAAGIISFKIAVAALITGGFSMVNAVEQFLISSIGGFIVGLLIGVALVRFRVTLSRRGIENINMFTFIQLVTPFITYIVAEMFHASGIIAAVVAGLVHGFERDRIAQARTRLQMSYNHTWNILGYALNGFVFSILGFLIPEVVGRIIENEPHNLIFLITVTCLIALAIYLFRFLWVFVLYPYFYLPVSPFQKMISHNEDDQKTAETPPKRGMYAFIMTLCGVHGTISLAIALTLPYMLADHHSFIFRDDLLFIASGMVIISLIVAQMILPVVTPNAKKPKIVGMNFKQARVYILEKVIDSLNQQSSVTSSFQYGNVIKDYHDKLAFLRTVENEDENTKELQRLQKLAFDVENQTLNGLVENGDITTNVLDNYMRYTERTQVYKQASLLQRIKVEVRAMILKRRIRTKVKTNAASPLSVVDNLREISNIMRTVHYRVVSRLGKETTENNKLEVGMICDSYLIRIDNLTPSNFFNPKNENSITKIKLSALKEQRRILNQLVEDEEVSEVTALKIREAINYDEMIIVDSSTD
protein production: failed

MSIEAKFKKLGTDNAPGQEVRQSAAGLEALIRGAPIEGRPVDFSHGDVDAHEPTPGAFDLFSAGVQSGGVQAYTEYRGDLGIRDLLAPRLAAFTGAPVDARDGLIITPGTQGALFLAVAATVARGDKVAIVQPDYFANRKLVEFFEGEMVPVQLDYVSADETRAGLDLTGLEEAFKAGARVFLFSNPNNPAGVVYSAEEIGQIAALAARYGATVIADQLYSRLRYAGASYTHLRAEAAVDAENVVTIMGPSKTESLSGYRLGVAFGSRAIIARMEKLQAIVSLRAAGYSQAVLRGWFDEAPGWMEDRIARHQAIRDELLHVLRGCEGVFARTPQAGSYLFPRLPKLAVAPAEFVKILRLQAGVVVTPGTEFSPHTADSVRLNFSQDHEAAVAAARRIVTLVERYRA
protein production: not failed

MRAALTGGGLVLAYTAVISSADAITKLIAQGYAAPQLYAISGLIVAAISLAAARRNRARALKTVCPRAMALRALATVVASLCFFHTFRLLPFADVFVFIGLMPIMAALMSGLMLDEHARPAAWAALVAGFVGVLCLMPGGIGAIGAGHLWALGGVVTGTFSLILSRYIGRYESNALAQVFYPNLALGLSMAAALPFVWVPMPMLDLAWVGAYAALLFLARWLLVIALRLLAAYVVTPLLNLQFVWMVALGALAFGEWPAPMTWLGAAIVMVSGLYLIWDQMTPTTREQEELSLRTDP
protein production: failed

EPPDERAVADGWQQLVELGAVDSQHVLTAIGREMARLPVDVKSARMLVAARQHGCVHEMTVIAAFLGVQDPRERPPEAREAADNAHAKFADAR
protein production: not failed

MFTGMIRLVTLGTFAAALLSSPALAAGGGGGGGGGGSISSTDPYAGAYSDQKPQPTYPKRPGTKATQKGKKQGNQSSIGDPAFAAGYRVAYDTIYERNDYATAIAQLKSLGHDDHPNVANLIGYSYRKLGDYEQSQVWYERALRADPNHVQTWQYYGLWQLERGNREQALYHLGRIASICGTDCDEYRSLAAALDKPSGTALVY
protein production: failed

MDQCYFENSLSTECIIRSASRSDGCQMPKLFCQNLPPPLPPKKYAITSVPQSEKSESTPDVKLTEVFKATSHLPKHSLSTASEPSLEVSTHMNDERHKETFQVRECFGNTPNCPSSSSTNDFQANSGAIDAFCQPELDSISTCPNETVSLTTYFSVDSCMTDTYRLKYHQRPKLSFPESSGFCNNSLS
protein production: failed

MGLSRVRAVFFDLDNTLIDTAGASRRGMLEVIKLLQSKYHYKEEAEIICDKVQVKLSKECFHPYSTCITDVRTSHWEEAIQETKGGADNRKLAEECYFLWKSTRLQHMILADDVKAMLTELRKEVRLLLLTNGDRQTQREKIEACACQSYFDAIVIGGEQKEEKPAPSIFYHCCDLLGVQPGDCVMVGDTLETDIQGGLNAGLKATVWINKSGRVPLTSSPMPHYMVSSVLELPALLQSIDCKVSMSV
protein production: not failed

APAEPAAPKSGEAETPPKHPGVLKVEAILEKVQGLEQAVDSFEGKKTDKKYLMIEEYLTKELLALDSVDPEGRADVRQARRDGVRKVQTILEKLEQKA
protein production: not failed

MLRIFSAKNEVDSKYIFMLAFMLALFSSGVPPEIVILHLSREDSFEPYTKVFKKIRNLVSGYRYKFSSAITYSIKNLNIRFLKEFLIRLSQAVTFGDDMIEFLSREIDFTLSEYNAYSARLIESMNNFLTIYATLNSSLTFLVADITILSLIYSGGTTLIIQLTILSLALLGNLTLVMYLLYRPENYIRYNVIDKFVLTFTISLSIIFSVIYTSYIVLMGTGIVLLGIGLRYRLYENKINRIERHFLLFIRYFSRNYAIVSNLKESLMAVLRGDLGDVRPLIRRSLNRLNFGIDKEKIFRLIGDESGSILVSMLSKVLYETISMGGNAMIIGEILSKIGDSVLNIRSRKEQNGRAFETSIYALQTASAGVSAALISIVGMLNNIFSTQNVSTVFSFSEVNIDIISRIFLIILLILSFANGIAITLAYGKSLYVSLYFIGILIILSSISYHIVLILTGNIFKELASPSGLLQTT
protein production: failed

MKFGKRHYRPQVDQMDCGVASLAMVFGYYGSYYFLAHLRELAKTTMDGTTALGLVKVAEEIGFETRAIKADMTLFDLPDLTFPFVAHVLKEGKLLHYYVVTGQDKDSIHIADPDPGVKLTKLPRERFEEEWTGVTLFMAPSPD
protein production: not failed

MSSSVVAETVPSGSGSWFSHFKATLVLGIPLIGAQLAQLGIHTTDMVIVGQLGAEKLAAMVLAGQFFFVVFIFGSGFSVAVVPMVAQAYGQGDATSARRSLRMGMWVAIAYWLLALPIFFNAERILVYLGQNPNVAALTGHYLAIAKFGLLPALLFYVLRGLVSAIGRAGIILYVTIIMLVMNGLMAYVLVFGHFGLPAMGMNGAAVVAVIVNAFSFIFIVAYVQTREETKKYELFVRFWRPDWHALFEVLRLGLPISITILAEVTLFAAASILMGQIGTVQLAAHGIALQLASIAFMIPLGLSQAATVRVGVARGQGDFKNLIRASIMIYAIACGIALCGGILFAAVPEFLAKWFLDPKLPEAAEVLAYASSLVVIAGIFQLVDGIQAVTAGLLRGLKDARIPAMLALISYWPIGLALAWTMAFPLGFGGRGVWFGFVIGLSTAAVLLTVRFVLLVKREMKTAR
protein production: failed

MGHHHHHHSHMAFVTRQFMRSVSSSSTASASAKKIIVKHVTVIGGGLMGAGIAQVAAATGHTVVLVDQTEDILAKSKKGIEESLRKVAKKKFAENPKAGDEFVEKTLSTIATSTDAASVVHSTDLVVEAIVENLKVKNELFKRLDKFAAEHTIFASNTSSLQITSIANATTRQDRFAGLHFFNPVPVMKLVEVIKTPMTSQKTFESLVDFSKALGKHPVSCKDTPGFIVNRLLVPYLMEAIRLYERGDASKEDIDTAMKLGAGYPMGPFELLDYVGLDTTKFIVDGWHEMDAENPLHQPSPSLNKLVAENKFGKKTGEGFYKYK
protein production: not failed

AHQYGVKSYIGIPRSYSHDRTDFMQSEQAEILYYDGKYEETVEFIRDFSKDNGLYDASPGSANSSIDKMMYATIAFEIYEALLTVPSYVIVPVGNGTTLAGIYHGFRRMYDEGVIDHLPRMVGVSTSGGNPIVDSWRHGYSRVVDLNPEEIRETSINEPLVSYRSFDGQDALSAIRETHGRAMYVSDEEMVYYSNLIYSAEGLNPLPASASAVAAIGHLKVKQDETVVSVITGRQI
protein production: failed
